Test results from patent US7566535B2, “Enhanced oligonucleotide-mediated nucleic acid sequence alteration” (University of Delaware, priority 2002, dated 2009).
In the oligonucleotide strings, read from the 5' end, every base follows the letter of its sugar. An asterisk marks phosphorothioate; unmarked linkages are phosphodiester. Other units and linkages are bracketed, terminal groups are in braces. A string of capitals states the bases alone. d = 2'-deoxy (DNA)

How the values were obtained:
[1] = tested on: human β-globin gene in YAC; assay: Dual targeting: second-site editing of β-globin gene in YAC, SNaPshot and sequencing; settings: HU, TSA, RAD51 overexpression
pAURHYG(x)eGFP = assay: Strand bias of hygromycin gene correction in rad1 and rad10 yeast mutants
CYC1 gene = CYC1 gene repair in diploid yeast strains, growth on glycerol (YPG)
[2] = YMH51 (wild-type CYC1), 5 μg oligo
[3] = YMH55 with PYNMRE11, 5 μg oligo
[4] = YMH55 with PYNRAD51, 5 μg oligo
[5] = YMH55 with PYNRAD52, 5 μg oligo
[6] = YMH55 with PYNRAD54, 5 μg oligo
[7] = YMH55 with PYNRAD55, 5 μg oligo
[8] = YMH55 with pYN132 (empty vector), 5 μg oligo
[9] = YMH55 with pYNβ (lambda beta protein expression), 5 μg oligo

B1: βThal2: 71mer with three phosphorothioate linkages at 5′ and 3′ ends directing T to C in β-globin, SEQ ID NO: 28 (nucleic acid)
DNA: dT*dA*dA*dCdGdGdCdAdGdAdCdTdTdCdTdCdCdAdCdAdGdGdAdGdTdCdAdGdGdTdGdCdAdCdCdGdTdGdGdTdGdTdCdTdGdTdTdTdGdAdGdGdTdTdGdCdTdAdGdTdGdAdAdCdAdCdAdG*dT*dT*dG
[1]
  cells with corrected hygromycin also containing the edited β-globin gene: approximately 10%

B2: Kan70T: non-specific, control oligonucleotide not complementary to the target sequence, SEQ ID NO: 11 (nucleic acid)
DNA: CATCAGAGCAGCCAATTGTCTGTTGTGCCCAGTCGTAGCCGAATAGCCTCTCCACCCAAGCGGCCGGAG
modifications: listed as DNA, chemistry not given here
pAURHYG(x)eGFP; rad1 mutant
  Colonies on Hygromycin: 0
pAURHYG(x)eGFP; rad10 mutant
  Colonies on Hygromycin: 0

B3: Cyc1/70T: modified single-stranded vector targeting the transcribed strand of mutant CYC1, three phosphorothioated linkages at each terminus, SEQ ID NO: 21 (nucleic acid)
DNA: dA*dG*dG*dTdGdCdTdAdCdAdCdTdTdTdTdCdAdAdGdAdCdTdAdGdAdTdGdTdCdTdAdCdAdAdTdGdCdCdAdCdAdCdCdGdTdGdGdAdAdAdAdGdGdGdTdGdGdCdCdCdAdCdAdTdAdAdG*dG*dT*dT
CYC1 gene; [2]
  No. of YPG Plate Colonies: lawn
CYC1 gene; YMH52, 5 μg oligo
  C.E.: 0.17 ×10^−4
  No. of YPG Plate Colonies: 57
CYC1 gene; YMH53, 5 μg oligo
  C.E.: 0.74 ×10^−4
  No. of YPG Plate Colonies: 281
CYC1 gene; YMH53 with PYNMRE11 + PYNXRS2
  Average C.E.: .263 ×10^−5
  Fold: 8.29
  No. of YPG Plate Colonies: 155
CYC1 gene; YMH53 with PYNRAD52 + PYNRAD54
  Average C.E.: .185 ×10^−5
  Fold: 5.82
  No. of YPG Plate Colonies: 103
CYC1 gene; YMH53 with pYN132
  Average C.E.: 0.03169 ×10^−5
  Fold: 1
CYC1 gene; YMH54, 5 μg oligo
  C.E.: 0.14 ×10^−4
  No. of YPG Plate Colonies: 43
CYC1 gene; YMH55, 5 μg oligo
  C.E.: 0.38 ×10^−4
  No. of YPG Plate Colonies: 116

B4: Cyc1/70NT: modified single-stranded vector targeting the nontranscribed strand of mutant CYC1, three phosphorothioated linkages at each terminus, SEQ ID NO: 22 (nucleic acid)
DNA: dA*dA*dC*dCdTdTdAdTdGdTdGdGdGdCdCdAdCdCdCdTdTdTdTdCdCdAdCdGdGdTdGdTdGdGdCdAdTdTdGdTdAdGdAdCdAdTdCdTdAdGdTdCdTdTdGdAdAdAdAdGdTdGdTdAdGdCdA*dC*dC*dT
CYC1 gene; [2]
  No. of YPG Plate Colonies: lawn
CYC1 gene; YMH52, 5 μg oligo
  C.E.: 0.47 ×10^−4
  No. of YPG Plate Colonies: 186
CYC1 gene; YMH53, 5 μg oligo
  C.E.: 0.21 ×10^−4
  No. of YPG Plate Colonies: 73
CYC1 gene; YMH53 with PYNMRE11 + PYNXRS2
  Average C.E.: 0.322 ×10^−5
  Fold: 57.48
  No. of YPG Plate Colonies: 178
CYC1 gene; YMH53 with PYNRAD52 + PYNRAD54
  Average C.E.: 0.179 ×10^−5
  Fold: 32.01
  No. of YPG Plate Colonies: 109
CYC1 gene; YMH53 with pYN132
  Average C.E.: 0.0056 ×10^−5
  Fold: 1
CYC1 gene; YMH54, 5 μg oligo
  C.E.: 0.28 ×10^−4
  No. of YPG Plate Colonies: 80
CYC1 gene; YMH55, 5 μg oligo
  C.E.: 2.99 ×10^−4
  No. of YPG Plate Colonies: 895
CYC1 gene; [3]
  Average C.E.: 0.04 ×10^−5
  Fold: 1.1
  No. of YPG Plate Colonies: 25
CYC1 gene; [4]
  Average C.E.: 0.52 ×10^−5
  Fold: 14.8
  No. of YPG Plate Colonies: 260
CYC1 gene; [5]
  Average C.E.: 0.22 ×10^−5
  Fold: 6.2
  No. of YPG Plate Colonies: 108
CYC1 gene; [6]
  Average C.E.: 0.09 ×10^−5
  Fold: 2.4
  No. of YPG Plate Colonies: 42
CYC1 gene; [7]
  Average C.E.: 0.78 ×10^−5
  Fold: 22.2
  No. of YPG Plate Colonies: 410
CYC1 gene; YMH55 with PYNXRS2, 5 μg oligo
  Average C.E.: 0.03 ×10^−5
  Fold: 1.34
  No. of YPG Plate Colonies: 22
CYC1 gene; [8]
  Average C.E.: 0.04 ×10^−5
  Fold: 1
  No. of YPG Plate Colonies: 19
CYC1 gene; [9]
  Average C.E.: 0.32 ×10^−5
  Fold: 9.1
  No. of YPG Plate Colonies: 166
